In US20030119169A1:
No end group written: not given here.

Target: T1, CPP32, bacterially expressed recombinant active enzyme (human), P42574
T1 chain: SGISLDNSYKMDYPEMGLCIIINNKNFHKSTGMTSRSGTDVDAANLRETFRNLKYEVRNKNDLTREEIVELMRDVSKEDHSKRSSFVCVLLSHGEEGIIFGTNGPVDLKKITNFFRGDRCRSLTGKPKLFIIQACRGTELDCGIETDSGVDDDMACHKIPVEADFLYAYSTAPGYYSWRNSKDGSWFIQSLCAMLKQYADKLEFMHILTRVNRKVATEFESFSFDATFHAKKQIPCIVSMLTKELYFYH
Assay: inhibition of hydrolysis of 10 µM DEVD-AMC, continuous fluorometric assay, bacterial lysate, 30 min preincubation
Settings: remark: other sources report otherwise

Binder YVAD-aldehyde [YVAD aldehyde] has a Ki of 8.5 µM.
